Our source for the Kd values is article doi:10.1101/2020.11.05.369280 (bioRxiv, 2020).

Where only a bound is given, the exact number is not on record here.

This test deals with EIIA^Glc (UniProt P69783 2-169). Put plainly: SPR + ELISA. (In general: An ELISA detects its analyte on a solid surface through an enzyme-linked reagent.)
Chain of EIIA^Glc (P69783 2-169): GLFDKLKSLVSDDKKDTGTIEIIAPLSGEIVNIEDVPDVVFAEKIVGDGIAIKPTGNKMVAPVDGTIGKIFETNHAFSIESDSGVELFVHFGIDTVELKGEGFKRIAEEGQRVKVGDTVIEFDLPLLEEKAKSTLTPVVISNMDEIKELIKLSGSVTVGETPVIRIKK

B1: EIIB^Glc (domain or fragment)
chain: EDATEDAKATGTSEMAPALVAAFGGKENITNLDACITRLRVSVADVSKVDQAGLKKLGAAGVVVAGSGVQAIFGTKSDNLKTEMDEYIRN
In general, Kd refers to the concentration at which binding is half-saturated. For the molecule B1, the Kd was more than 10 µM.
